Measured values reported in IntAct's records for PubMed 9418902.

B1: Tumor necrosis factor receptor superfamily member 4 (Mus musculus), P47741 (parent)
chain: MYVWVQQPTALLLLALTLGVTARRLNCVKHTYPSGHKCCRECQPGHGMVSRCDHTRDTLCHPCETGFYNEAVNYDTCKQCTQCNHRSGSELKQNCTPTQDTVCRCRPGTQPRQDSGYKLGVDCVPCPPGHFSPGNNQACKPWTNCTLSGKQTRHPASDSLDAVCEDRSLLATLLWETQRPTFRPTTVQSTTVWPRTSELPSPPTLVTPEGPAFAVLLGLGLGLLAPLTVLLALYLLRKAWRLPNTPKPCWGNSFRTPIQEEHTDAHFTLAKI
partner: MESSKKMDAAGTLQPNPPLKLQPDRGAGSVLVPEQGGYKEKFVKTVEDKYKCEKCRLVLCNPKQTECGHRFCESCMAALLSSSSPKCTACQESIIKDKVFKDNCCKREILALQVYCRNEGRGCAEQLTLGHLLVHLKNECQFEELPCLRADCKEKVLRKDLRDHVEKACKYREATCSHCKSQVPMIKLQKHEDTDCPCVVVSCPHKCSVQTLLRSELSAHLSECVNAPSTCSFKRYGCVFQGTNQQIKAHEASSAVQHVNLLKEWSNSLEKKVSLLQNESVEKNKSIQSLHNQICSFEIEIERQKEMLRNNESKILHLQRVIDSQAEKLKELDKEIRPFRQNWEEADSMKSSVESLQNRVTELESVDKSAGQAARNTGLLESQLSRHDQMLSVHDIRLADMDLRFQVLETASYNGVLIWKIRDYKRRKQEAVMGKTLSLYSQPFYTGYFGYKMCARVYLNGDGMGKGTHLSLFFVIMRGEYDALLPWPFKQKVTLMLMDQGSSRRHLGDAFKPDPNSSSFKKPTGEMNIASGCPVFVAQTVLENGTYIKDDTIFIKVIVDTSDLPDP
B2: Tumor necrosis factor receptor superfamily member 4 (Mus musculus), P47741 (parent)
chain: B1 chain
partner: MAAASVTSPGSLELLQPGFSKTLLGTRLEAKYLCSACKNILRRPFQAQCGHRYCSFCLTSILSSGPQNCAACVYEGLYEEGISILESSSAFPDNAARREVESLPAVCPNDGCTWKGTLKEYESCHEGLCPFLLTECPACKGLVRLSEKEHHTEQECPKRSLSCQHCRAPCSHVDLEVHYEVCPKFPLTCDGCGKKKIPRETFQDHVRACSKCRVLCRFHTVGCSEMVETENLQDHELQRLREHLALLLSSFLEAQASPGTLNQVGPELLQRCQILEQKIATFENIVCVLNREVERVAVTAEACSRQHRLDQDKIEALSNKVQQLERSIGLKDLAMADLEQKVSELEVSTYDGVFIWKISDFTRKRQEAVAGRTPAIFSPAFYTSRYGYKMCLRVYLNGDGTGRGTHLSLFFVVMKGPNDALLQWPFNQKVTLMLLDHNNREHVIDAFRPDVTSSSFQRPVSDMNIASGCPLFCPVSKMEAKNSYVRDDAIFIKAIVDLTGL

Variants of: B1
Settings: with traf3_mouse Traf3, Q60803

Row | effect of a mutation on the interaction | Variant
1 | disrupting interaction strength | T256A;P257A;I258A
2 | disrupting interaction strength | Q259A;E260A;E261A
3 | decreasing interaction strength | H262A;T263A;D264A

Variants of: B2
Settings: with traf2_mouse Traf2, P39429

Row | effect of a mutation on the interaction | Variant
4 | disrupting interaction strength | Q259A;E260A;E261A
5 | decreasing interaction strength | H262A;T263A;D264A
6 | disrupting interaction strength | T256A;P257A;I258A
